The text below walks through data of the DeepSol protein solubility set.

The nature of the series: soluble on expression in E. coli; label from the status in PepcDB or PDB records.
With “MNRARKTSSCGCFRSAFCLLKPSTSSASEEHGDSDKKLLSVQLITPRDEEEQTSSRSIKIPPLDLNGLDCKKNAVAARRAGRRRTSEGGGVRGKGHFAEVVLDGLQRPVSLLRNQKEKSNSDDNCQEKEPTSPSSSRKKSYDNAPALESLEKLRYILHQLNSGQLPLEDLKRNIEYAALVLETAYMDETRRICDEDDDLAEVTPETVPDEVREWLAATFTRQNAGKKRDKPKFKSVANAIRTGIFFEKLFRKQQVVQCPIPPEIAELMKEVCTWSFSPFQLNEVSEGHALKYVGFELFNRYGFMDRFKVPLTALENYLSALEVGYSKHNNPYHNVVHAADVTQSSHFMLSQTGLANSLGDLELLAVLFGALIHDYEHTGHTNNFHIQSQSQFAMLYNDRSVLENHHVSSCFRLMKEDDKNILTHLTRDEYKELRNMVIEIVLATDMSTHFMQIKTMKSMLSLPEGIDKNKALCLIVHACDISHPAKPWNLHERWTEGVLEEFFRQGDLEASMGLPYSPLCDRHTVHVADSQIGFIDFIVEPTMVVCGELLVKMVEPLVSLPPTDSLFPPSVDGGDDKSPSNALSPLPDLRNSSTSPSSIRRIPLNYAGKLDIPTPWMKFLHENKAHWKERAAKEEEERKIKEAAEAEAAAKQVEENKENGVTTN”, the “soluble on expression in E. coli” value was “not soluble”.

Turning to “AGNATEVPANSTVLSFCAFAVDPAKAYKDYLASGGQPITNCVKMLCTHTGTGQAITVTPEANMDQESFGGASCCLYCRCHIDHPNPKGFCDLKGKYVQIPTTCANDPVGFTLRNTVCTVCGMWKGYGCSCDQLREPLMQSADASTFLNGFAV”, the “soluble on expression in E. coli” value is reported as “soluble”.

On to “MSAPLFSVVVPAYNQHKFIDSCLTSLQRQTLTDFEVFVVDDCSTDDTGEQIAALIKGDDRFHVITHAHNRGVSAARNSGMAAAKGKYLCFVDGDDWVEPDFLATFLAAYRSAPDTQLVVCGHYGYLAVPSPAKTYNQKDLIANINFGTVGGFSWNKAFIRSIITTHHLKFNEDIDFLEDQLFAFRYANYVQSSEYVPDRTYHYRWRFRSNLAHIGIPFFTARRKMMKILKQENKQVLNEDWNNQ”, for which the “soluble on expression in E. coli” value is recorded as “not soluble”.

Consider “MGSDKIHHHHHHMSDEWIKIFESDFYVREMIKVWDEGEKWANWIDEVVSKYKLEKKVLDIPCGIGRVSYFLANRGYKVTGIDISERMISMARSNIQNGKFIVGDMRKIKEIIGNEKYDLVINIYNSLGYYSEEDDLKILESLRDSTRKIVVINLDNRDYIIYNRPNEYYTYIPPYLVYSKVEFEQETSRLKIYRKYYLNDKEVGEMIYEQRLYSIHEILALLKKAGLQPIEVLSGYSWKKFSIMDPEMTIIATPA”, for which the “soluble on expression in E. coli” value is given as “not soluble”.

Take “MGSDKIHHHHHHMMAKGTLCVLDPASILVVAPHFKRRLSGVTSTVVQLIPQQRRRGLAIATLGPGLPETMPALTFAQMPALWKKPRGASHRVWHARRNLEMLVGVVLRDVLRMPLKLLFTSAAQRHHSRYTRWLISKMDAVVATSARSGSFLHVPHSVIRHGIDTELFHPPQGAEDRIAATNLPGDYLIGCFGRVRHQKGTDLFVKAMIELLPRYPGWTAVVSGRVTPEHKGFAEGLKAQIAAASLTERIVFLGEVEDIKPWYRRLTLYVAPSRNEGFGLTPLEAMASETVVVASDAGAYAELIAEGATGAVVAADAYAPLRDAIEPYLADPGRACLHGKAAVAHVRENFALAREAAGLEAVYSRLLGRPVIAPPAPQP”: the “soluble on expression in E. coli” value is “not soluble”.

Take “MATWTVHLEGGPRRVNHASIAVGSRIYSFGGYCSGEVTDAKDPLDVHVLNTENYRWIKMNPGYVYNNRIITKATIESPYSDSDKMFGAVPYQRYGHTVVEYQGKAYVWGGRNDDYGACNLLHEYDPEYNVWKKVEIEGFVPPSRDGHTAVVWNNQMFVFGGYEEDAQRFSQETYVFDFATSTWREMHTKNDPPRWRDFHTASVIDGMMYIFGGRSDESGQVGDEHLFHTIHDQYDDTLMALNLATGAWTRTKVPENTMKPGGRRSHSTWVYDGKMYMFGGYLGTINVHYNELYCFDPKTSMWSVISVRGTYPSARRRHCSVVSNGKVYLFGGTMPLPCHPLSTTNYNGMISPSGLADLSDLHVLDFAPSLKTLAMQSVLNELKVPSKGMFETLQNELAADIRFEMYCQVMPNVVSNGGSPRNDQAG”: the “soluble on expression in E. coli” value was “not soluble”.

Turning to “MAPNASCLCVHVRSEEWDLMTFDANPYDSVKKIKEHVRSKTKVPVQDQVLLLGSKILKPRRSLSSYGIDKEKTIHLTLKVVKPSDEELPLFLVESGDEAKRHLLQVRRSSSVAQVKAMIETKTGIIPETQIVTCNGKRLEDGKMMADYGIRKGNLLFLACYCIGG”, the “soluble on expression in E. coli” value is given as “soluble”.

Consider “MQKINIDRHATAQINMLANKLMLKSSTAYTQKFGIGMTEWRIISVLSSASDCSVQKISDILGLDKAAVSRTVKKLEEKKYIEVNGHSEDKRTYAINLTEMGQELYEVASDFAIEREKQLLEEFEEAEKDQLFILLKKLRNKVDQM”, for which the “soluble on expression in E. coli” value is “soluble”.

Consider “MSLKSHRYMEVSFTKYRINLKYSFGISRSSNNYYDVAFVFIKDKGIIGRGEAAPSKRYGESIDYIIKLLESGISLPKNSYDKESVWKHVKPQLGGIKSLEAAFNMAIWDWWGQKQKKPVYELLNIKVNNLPKTSFTIAIGNMNEIERKIEEAKPYSILKVKLGTPKNDKKIITEIRKLTDKLIRVDANEGWDLDMAIKMSKWLADRNVEFIEQPFPASKIDQTSILKKKSPLDIFADENSINSNDIPSLEGVFDGINIKLMKCGSIEEGYKMIKLAREFDLKIMLGCMVESSIEGHHHHHH”, for which the “soluble on expression in E. coli” value was “soluble”.

In the case of “MIFTYNKEHVGDVLMVIVKDSKGAKLNCERKGKVTRIFLEKNKETVAWNIFAVSNLLDLNGNGQVFLTDEELAVLNAELAKEGFEEKLENNAAAKFVVGEIVEMVAHPDSDHLNICQVKIAEDKTVQIVAGAPNARVGLKTIVALPGAMMPSGGLIFPGNLRGEKSFGMLCSPRELALPKAPQKRGIIELSTDAVIGQAFDAGKHWKGLEHHHHHH”, the “soluble on expression in E. coli” value was “not soluble”.

With “MSLSATSNSNWDRRSVLRAAAGLAALGPLAACGSNTGRSGGGSSGESLVQYFHAYGEAGTEQAIRRYAKAYDKAAVTTQWITGTNFESKLFSALLTDNAPDVFEFHPQLQMIKSGQVAALDDIIDPVKDDFNPADITSHTVDGKVYGVRMIDDPQFFFYRKSLLEKAGTGVPQTLDELAEAAAKLTTDKVKGLFLGNNMVAPNYALVWAAGADQLNAKNEIAYHTDEVAAALKVYRKMFTSGHLLLDAPADYWDPSALVQGLTAIQWCGMWAMPVMQQALGDDLGIFPFPSAASGAKPAVYNGGWSMFVNAKGKNVDLAKEYVKWLWIDQKKYQEDWALSYGFHIPPRTSTAESATKLKSGLPAEGVKLFTDYGRFDNVSWTQAMISALEGVIADAVRKGKDPEAALDTADKKVNRELKNLFGEGHHHHHH”, the “soluble on expression in E. coli” value is on record as “soluble”.

In the case of “SSLIQAGQQTRFTTDASAAVEPADSARETWSRGVLVAWDMTLGDVVKELRRYRSGYLGIAPEVAGLRVFGSFPLRDTDDTLTMLASALPIRIQRTLPWWVSIEARTDADPHR”, the “soluble on expression in E. coli” value is on record as “not soluble”.

As to “MGSSHHHHHHSSGLVPRGSHMMRKQRIVIKISGACLKQNDSSIIDFIKINDLAEQIEKISKKYIVSIVLGGGNIWRGSIAKELDMDRNLADNMGMMATIINGLALENALNHLNVNTIVLSAIKCDKLVHESSANNIKKAIEKEQVMIFVAGTGFPYFTTDSCAAIRAAETESSIILMGKNGVDGVYDSDPKINPNAQFYEHITFNMALTQNLKVMDATALALCQENNINLLVFNIDKPNAIVDVLEKKNKYTIVSK”, the “soluble on expression in E. coli” value is on record as “soluble”.

As for “MNEKELADSVFGGLMAKAMGKMVHESEICPLVDQIEGKGQTNEELQGLRLSLSDLLLRHPDKFINCGNRNWRLNQNNHAFQQLAESISDKKSGKGGKRSARGGSNLPSFNRARSGGIPRNHNQTHGFRQSAPAHRGHHRPPAGNHGSSFRPNLNISQPNPSNDYSKMTGLHYPVSRNVLASNNGSNSRFSNQPPRREDHHEKMIMRTPYRDPSPRRGNNYGDIRGRPDSRDGYNGDRDSTRYSSPRRNEQPGRPSSRGSNISDYSQFSSDTNAESNTERRSRPDASSPDLADLARRFNSSSINVQPQPLESVASSDVLSKKIAKAVRKIMKKLNEGEKLSLENLFDEIERKNKILIPGKNGKEKEDFLKDLKKIMPKLLSALTIDTETGDLTWNEAAVTTDSPIHEYMEDDLHYYVVDYVKMLDKARFRVTDEAERLSNATGVRMERTCEKLTYVLFITFEGEYRYASGSKTEVLKISKITTVGDAPEFYQTSFEHKIFENVPANALVKCGIVRYQNVQKFAVRPEEYIKPYEKMNQEIQDFMSQIRNEKSVPFEMWRPNHACLVQLNDSTTILKWSRAMIIKIETQLIFLFILDSGFRKVVPSSDLRLMPQKFAKLPPFAIPCTLDESEDDKDNIEFGGKEYLSNGPGNLSVTCSGAATASDGILTYPIKLFSTCHGGPLTNIKDVFI”, the “soluble on expression in E. coli” value is reported as “not soluble”.

Turning to “EPEQVIRKYTEELKVAPEEDCIICMEKLAVASGYSDMTDSKALGPMVVGRLTKCSHAFHLLCLLAMYCNGNKDGSLQCPSCKTIYGEKTGTQPWGKMEVFR”, the “soluble on expression in E. coli” value is reported as “soluble”.

As to “MGSDKIHHHHHHMNVENQSLSDIEIILSHRYDNGADYWTTPDKRLIKGSPFSTLDSVLYLLELGVNPDDTLLKECADLIFSTWREDGRFKLYPNGGIYPCHTANAANVLCHMGYASDIRMQKTFQHFLDTQYTDGGWRCNKFSFGRGPETEYSNPLPTLNILNAFRFSNYLNKESKLDKAVDFLLDHWTIKKPIGPCHYGIGTLFMQVEYPFRNYNLFLYVYVLSFYSRAKKDKRFLEALKILESKMIGNKIVVERVVPKLSKLSFCKKGESSEIATTHYYEILKNLDK”, the “soluble on expression in E. coli” value is listed as “not soluble”.

Take “MKSKYEPLFDKVELPNGVELRNRFVLAPLTHISSNDDGTISDVELPYIEKRSQDVGITINAASNVSDVGKAFPGQPSIAHDSNIEGLKRLATAMKKNGAKALVQIHHGGAQALPELTPDGDVVAPSPISLKSFGQKQEHSAREMTNEEIEQAIKDFGEATRRAIEAGFDGVEIHGANHYLIHQFVSPYYNRRNDVWANQYKFPVAVIEEVLKAKEAYGNKDFIVGYRLSPEEAESPGITMEITEELVNKISHMPIDYIHVSMMDTHATTREGKYAGQERLPLIHKWINGRMPLIGIGSIFTADEALDAVENVGVDLVAIGRELLLDYQFVEKIKDGREDEIINYFDPEREDNHHLTPNLWHQFNEGFYPLPRKDK”: the “soluble on expression in E. coli” value is reported as “not soluble”.

For “MTMNANIEVRLKSPAHPGGFIKHEIIEPLALSVSNAAEVLGVSRAALSALLNERAHLPPEMALRIEKAFGVSMDTLMRMQNSYDIAQTRKRAEEIKVAPFSGKPIESNSVV”, the “soluble on expression in E. coli” value is “not soluble”.

“MSLKGDDIEEGKELVATHIAEGLYHDGKFVGYVKRAHDVDVNLNAHTMFENLVVKASGVLSAIQMLRHSKIDPAEIDYVIECSEEACGDINQRGGGNFAKSIAEIAGLQNATGSDTRGFCAAPTHALIQAAALVKAGIHKNVMVVAGGASAKLGMNAKDHVKKGLPVLEDVVGGFAVLVSENDGVNPVIRTDLTGKHTVGTGSSPQAVMTALITSGLDRANLKITDVDVYSVEMQNPDITKPAGAGDVPEANYKMIGALAVKRGDLEKKELKDFVSNKGLPGWAPTQGHIPSGAPYIGFLIDDLTTGNRNRAMIVGKGSLFLGRMTNLFDGVSFIAERNTGVTEETSGISKDEIKKIIAESMKKLALDMLEEGHHHHHH”: the “soluble on expression in E. coli” value is “not soluble”.
